In publication PMC3835959 (Cell reports, 2013):
Where a chain is given by its changes, count along the chain named. Names and notes keep the numbering of the source.

B1: EscN ATPase, full-length, hexameric (enzyme)
chain: MISEHDSVLEKYPRIQKVLNSTVPALSLNSSTRYEGKIINIGGTIIKARLPKARIGAFYKIEPSQRLAEVIAIDEDEVFLLPFEHVSGMYCGQWLSYQGDEFKIRVGDALLGRLIDGIGRPMESNIVAPYLPFERSLYAEPPDPLLRQVIDQPFILGVRAIDGLLTCGIGQRIGIFAGSGVGKSTLLGMICNGASADIIVLALIGERGREVNEFLALLPQSTLSKCVLVVTTSDRPALERMKAAFTATTIAEYFRDQGKNVLLMMDSVTRYARAARDVGLASGEPDVRGGFPPSVFSSLPKLLERAGPAPKGSITAIYTVLLESDNVNDPIGDEVRSILDGHIVLTRELAEENHFPAIDIGLSASRVMHNVVTSEHLRAAAECKKLIATYKNVELLIRIGEYTMGQDPEADKAIKNRKLIQNFIQQSTKDISSYEKTIESLFKVVA
B2: CesAB–EspA heterodimeric chaperone–substrate complex (complex)
chain 1: MSIVSQTRNKELLDKKIRSEIEAIKKIIAEFDVVKESVNELSEKAKTDPQAAEKLNKLIEGYTYGEERKLYDSALSKIEKLIETLSPARSKSQSTMNQRNRNNRKIV
chain 2: MDTSTTASVASANASTSTSMAYDLGSMSKDDVIDLFNKLGVFQAAILMFAYMYQAQSDLSIAKFADMNEASKESTTAQKMANLVDAKIADVQSSSDKNAKAQLPDEVISYINDPRNDITISGIDNINAQLGAGDLQTVKAAISAKANNLTTTVNNSQLEIQQMSNTLNLLTSARSDMQSLQYRTISGISLGK
B3: CesAB^Y64A/R68A–EspA complex (complex)
chain 1: B2 chain 1 with Y64A, R68A
chain 2: B2 chain 2

Columns and labels:
[1] = biological target: the molecule itself
[2] = biological target: B1; experiment: NMR titration

## B1
[1]
  stoichiometry N: 6

## B2
[2]
  Kd: ~3 µM

## B3
[2]
  Kd: > 80 µM
